From the MegaScale stability set (Tsuboyama et al. 2023)

B1: 5KPH (parent)
chain: EEKRQVKQVAKEKLLEQSPNSKVQVRRVQKQGNTIRVELELRTNGKKENYTVEVERQGNTWTVKRITRT

Variants of: B1
Experiment: folding stability dG (cDNA display proteolysis); higher = more stable
Conditions: PBS, room temperature

Variant	folding stability dG [kcal/mol]
EEKRQVKQVAKEKALEQSPNSKVQVRRVQKQGNTIRVELELRTNGKKENYTVEVERQGNTWTVKRITRT [L14A]	3.13
EEKRQVKQVAKEKLLEQSPESKVQVRRVQKQGNTIRVELELRTNGKKENYTVEVERQGNTWTVKRITRT [N20E]	3.53
EEKRQVKQVAKEKLLEQSPDSKVQVRRVQKQGNTIRVELELRTNGKKENYTVEVERQGNTWTVKRITRT [N20D]	3.66
EEKRQVKQVAKEKLLEQSPYSKVQVRRVQKQGNTIRVELELRTNGKKENYTVEVERQGNTWTVKRITRT [N20Y]	3.32
EEKRQVKQVAKEKLLEQSPNSKVQVRRVQKQGNTIRVELELRTNGKKENYTVEVERQGNTWFVKRITRT [T62F]	4.24
EEKRQVKQVEKEKLLEQSPNSKVQVRRVQKQGNTIRVELELRTNGKKENYTVEVERQGNTWTVKRITRT [A10E]	1.78
EDKRQVKQVAKEKLLEQSPNSKVQVRRVQKQGNTIRVELELRTNGKKENYTVEVERQGNTWTVKRITRT [E2D]	3.9
EEKRQVKQVAKEKLLEQSPNSKVQVRRVQKQGNTIRVELELRTNGKKENYTVEVERQGNTWTVKRITTT [R68T]	3
EEKRQWKQVAKEKLLEQSPNSKVQVRRVQKQGNTIRVELELRTNGKKENYTVEVERQGNTWTVKRITRT [V6W]	3.61
EEKRQVKQVAKEKLGEQSPNSKVQVRRVQKQGNTIRVELELRTNGKKENYTVEVERQGNTWTVKRITRT [L15G]	2.53
EEKRQVKQVAKEKLLEQSPNSKVQVRRVQKQGNTIRVELELRTNGKKENYTVEVERQGNMWTVKRITRT [T60M]	4
EEKRQVKQVAKEKLLEQSPNSKVQVRRVQKQGNTIRGELELRTNGKKENYTVEVERQGNTWTVKRITRT [V37G]	1.21
EEKRQVKQVAKEKLLEQSPNSKVQVRRVQKQGNTIRVELELRTNGKKENYTVEQERQGNTWTVKRITRT [V54Q]	0.909
EEKRQVKQVAKEKLLEQSPNSKVQVRRVQKQGNTIRVELELRTNGKKENYTVETERQGNTWTVKRITRT [V54T]	2.23
EEKRQVKQVAKERLLEQSPNSKVQVRRVQKQGNTIRVELELRTNGKKENYTVEVERQGNTWTVKRITRT [K13R]	3.61
EEKRQVKQVAKEKLLEQSPNSKVQVRRVQKQGNTIRVELELRTNGKKENYTVEVERQGNTWTVKDITRT [R65D]	3.59
EEKRQVKQVAKEKLLEQSPNSKVQVRRVQKQGNTIRVELELRTNGKKENYTVEVERQGNTWTVDRITRT [K64D]	2.18
EEKRQVKCVAKEKLLEQSPNSKVQVRRVQKQGNTIRVELELRTNGKKENYTVEVERQGNTWTVKRITRT [Q8C]	3.49
EEKRQVKQVAKEKLLEQSPNSKVWVRRVQKQGNTIRVELELRTNGKKENYTVEVERQGNTWTVKRITRT [Q24W]	4.4
EEKRQVKQVAKEKLLEQSPNSKVSVRRVQKQGNTIRVELELRTNGKKENYTVEVERQGNTWTVKRITRT [Q24S]	4.13

Variant	folding stability dG [kcal/mol]
EEKRQVKQVAKEKLLEQSPNSKVQVMRVQKQGNTIRVELELRTNGKKENYTVEVERQGNTWTVKRITRT [R26M]	4.11
EEKRQVKQVAKEKLLEQSPNSKVQVRRVQKQGNTIRVELELRTNGKKENYTVEVERQGPTWTVKRITRT [N59P]	3.84
EEKRQVKQVAKEKLLTQSPNSKVQVRRVQKQGNTIRVELELRTNGKKENYTVEVERQGNTWTVKRITRT [E16T]	3.34
EEKRQVKQVAKNKLLEQSPNSKVQVRRVQKQGNTIRVELELRTNGKKENYTVEVERQGNTWTVKRITRT [E12N]	3.73
EEKRQVKQVAKEKLLEQSPNSKVQVRRVQKQGNTIRVELELRTNGKKENYTVEVERQGNTKTVKRITRT [W61K]	0.975
EEKRQVKQVAKEKLLEQSPNSKVQVRRVQKQGNTIRVILELRTNGKKENYTVEVERQGNTWTVKRITRT [E38I]	4.1
EEKRQVKQVAKEKLLEQSPNSKVQVRRVQKQGNTIRVELELRTNGKRENYTVEVERQGNTWTVKRITRT [K47R]	4.02
EEKRQVKQVAKEKLLEQSPNSKVQVRRVQKQGNTIRVELELRTNGEKENYTVEVERQGNTWTVKRITRT [K46E]	3.44
EEKRQVKQVAKEKLLEQSPNSKVQVRRVQKQGNTIRVEYELRTNGKKENYTVEVERQGNTWTVKRITRT [L39Y]	2.59
EEKRQVKQVAKEKLLEQSPNSKVQVRRVQKQGNTIRVESELRTNGKKENYTVEVERQGNTWTVKRITRT [L39S]	1.55
EEKRQVKQVAKEKLLEQSPNSKVQVRRVQKQGNTIRVELELRTNGKKENQTVEVERQGNTWTVKRITRT [Y50Q]	1.33
EEKRQVKQVAKEKLLEQSPNSKVQVRRVQKQGNTIRVELELRTNGKKENYTVEVKRQGNTWTVKRITRT [E55K]	3.19
EEKRQVKQVAKEKLLEQSPNSKVQVRRVQKQGNTIRVELELRTNGKKENYTVEVARQGNTWTVKRITRT [E55A]	3.45
EEKRQVKQVAKEKLLEQSPNSKVQVRREQKQGNTIRVELELRTNGKKENYTVEVERQGNTWTVKRITRT [V28E]	1.75
EEKRQVKQVAKEKLLEQSPNSKVQVRRVQKQGNTIRVELELRCNGKKENYTVEVERQGNTWTVKRITRT [T43C]	3.24
EEKRQVKQGAKEKLLEQSPNSKVQVRRVQKQGNTIRVELELRTNGKKENYTVEVERQGNTWTVKRITRT [V9G]	1.81
EEKRQVKQVAKEKLLEQSPNSKIQVRRVQKQGNTIRVELELRTNGKKENYTVEVERQGNTWTVKRITRT [V23I]	3.9
EEKRQVKQVAKEKLLEQSPNSKFQVRRVQKQGNTIRVELELRTNGKKENYTVEVERQGNTWTVKRITRT [V23F]	2.6
EEKRQVKQVAKEKLLEQSPNSKEQVRRVQKQGNTIRVELELRTNGKKENYTVEVERQGNTWTVKRITRT [V23E]	1.2
